Each block holds one binder with its values, some of them ahead of it.
Target: PCNA (Homo sapiens, UniProt P12004)
Assay: enzyme activity assay

Sequence of PCNA (P12004 whole entry): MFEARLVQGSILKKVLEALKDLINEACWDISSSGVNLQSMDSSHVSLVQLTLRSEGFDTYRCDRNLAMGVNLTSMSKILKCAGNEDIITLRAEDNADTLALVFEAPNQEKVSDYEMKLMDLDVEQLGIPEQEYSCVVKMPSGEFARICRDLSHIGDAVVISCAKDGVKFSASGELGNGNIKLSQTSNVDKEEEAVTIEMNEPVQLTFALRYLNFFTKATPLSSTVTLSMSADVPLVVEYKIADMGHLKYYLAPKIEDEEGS

Kd: 73 nM
B1: DNA polymerase delta core (protein)
chain 1: MDGKRRPGPGPGVPPKRARGGLWDDDDAPRPSQFEEDLALMEEMEAEHRLQEQEEEELQSVLEGVADGQVPPSAIDPRWLRPTPPALDPQTEPLIFQQLEIDHYVGPAQPVPGGPPPSRGSVPVLRAFGVTDEGFSVCCHIHGFAPYFYTPAPPGFGPEHMGDLQRELNLAISRDSRGGRELTGPAVLAVELCSRESMFGYHGHGPSPFLRITVALPRLVAPARRLLEQGIRVAGLGTPSFAPYEANVDFEIRFMVDTDIVGCNWLELPAGKYALRLKEKATQCQLEADVLWSDVVSHPPEGPWQRIAPLRVLSFDIECAGRKGIFPEPERDPVIQICSLGLRWGEPEPFLRLALTLRPCAPILGAKVQSYEKEEDLLQAWSTFIRIMDPDVITGYNIQNFDLPYLISRAQTLKVQTFPFLGRVAGLCSNIRDSSFQSKQTGRRDTKVVSMVGRVQMDMLQVLLREYKLRSYTLNAVSFHFLGEQKEDVQHSIITDLQNGNDQTRRRLAVYCLKDAYLPLRLLERLMVLVNAVEMARVTGVPLSYLLSRGQQVKVVSQLLRQAMHEGLLMPVVKSEGGEDYTGATVIEPLKGYYDVPIATLDFSSLYPSIMMAHNLCYTTLLRPGTAQKLGLTEDQFIRTPTGDEFVKTSVRKGLLPQILENLLSARKRAKAELAKETDPLRRQVLDGRQLALKVSANSVYGFTGAQVGKLPCLEISQSVTGFGRQMIEKTKQLVESKYTVENGYSTSAKVVYGDTDSVMCRFGVSSVAEAMALGREAADWVSGHFPSPIRLEFEKVYFPYLLISKKRYAGLLFSSRPDAHDRMDCKGLEAVRRDNCPLVANLVTASLRRLLIDRDPEGAVAHAQDVISDLLCNRIDISQLVITKELTRAASDYAGKQAHVELAERMRKRDPGSAPSLGDRVPYVIISAAKGVAAYMKSEDPLFVLEHSLPIDTQYYLEQQLAKPLLRIFEPILGEGRAEAVLLRGDHTRCKTVLTGKVGGLLAFAKRRNCCIGCRTVLSHQGAVCEFCQPRESELYQKEVSHLNALEERFSRLWTQCQRCQGSLHEDVICTSRDCPIFYMRKKVRKDLEDQEQLLRRFGPPGPEAW
chain 2: not shown

Kd: 8.7 nM
B2: DNA polymerase delta core+p12 (protein)
chain 1: B1 chain 1
chain 2: not shown
chain 3: MGRKRLITDSYPVVKRREGPAGHSKGELAPELGEEPQPRDEEEAELELLRQFDLAWQYGPCTGITRLQRWCRAKQMGLEPPPEVWQVLKTHPGDPRFQCSLWHLYPL
